For test [1], the target named is T1, AMA1 on P. falciparum 3D7 strain parasites (Plasmodium falciparum). Briefly: cell-based or functional assay.
Test [2] deals with T1, AMA1 on P. falciparum 3D7 strain …. The test can be described thus: cell-based or functional assay. This is another data set of the same source.
Test [3] has as its target T2, P. falciparum HB3 AMA1 recombinant allelic protein (Plasmodium falciparum, UniProt P50491 83-531).
T2 sequence: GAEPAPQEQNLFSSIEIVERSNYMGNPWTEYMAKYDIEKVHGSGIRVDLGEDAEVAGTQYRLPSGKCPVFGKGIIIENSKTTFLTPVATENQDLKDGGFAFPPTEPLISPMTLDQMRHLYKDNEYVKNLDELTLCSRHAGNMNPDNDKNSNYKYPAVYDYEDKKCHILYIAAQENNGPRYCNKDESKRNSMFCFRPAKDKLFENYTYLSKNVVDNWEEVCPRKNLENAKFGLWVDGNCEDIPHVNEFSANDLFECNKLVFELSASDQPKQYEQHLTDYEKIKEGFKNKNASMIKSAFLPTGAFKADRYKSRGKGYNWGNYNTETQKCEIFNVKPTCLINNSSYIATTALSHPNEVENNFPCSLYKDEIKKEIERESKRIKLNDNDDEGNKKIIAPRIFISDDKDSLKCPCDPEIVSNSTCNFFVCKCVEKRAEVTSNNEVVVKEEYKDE
Briefly: dot blot against 7 AMA1 allelic proteins.

Test [4] deals with T3, P. falciparum 7G8 AMA1 recombinant allelic protein (Plasmodium falciparum, UniProt P50492 83-531).
T3 sequence: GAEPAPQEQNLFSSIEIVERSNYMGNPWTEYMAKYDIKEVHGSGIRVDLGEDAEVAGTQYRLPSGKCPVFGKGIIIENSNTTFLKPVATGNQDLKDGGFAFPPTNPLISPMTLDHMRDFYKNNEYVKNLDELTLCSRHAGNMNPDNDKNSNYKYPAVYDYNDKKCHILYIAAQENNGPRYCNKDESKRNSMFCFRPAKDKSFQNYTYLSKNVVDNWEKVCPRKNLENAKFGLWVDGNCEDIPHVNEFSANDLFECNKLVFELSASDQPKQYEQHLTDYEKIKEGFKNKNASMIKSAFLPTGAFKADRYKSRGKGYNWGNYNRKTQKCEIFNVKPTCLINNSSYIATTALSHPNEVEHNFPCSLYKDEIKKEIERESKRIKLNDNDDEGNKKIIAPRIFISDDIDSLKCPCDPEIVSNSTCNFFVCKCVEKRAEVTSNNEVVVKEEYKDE
Briefly: dot blot against 7 AMA1 allelic proteins.

Test [5] has as its target T4, P. falciparum 3D7 AMA1 recombinant allelic protein (Plasmodium falciparum, UniProt P22621 83-531).
T4 chain: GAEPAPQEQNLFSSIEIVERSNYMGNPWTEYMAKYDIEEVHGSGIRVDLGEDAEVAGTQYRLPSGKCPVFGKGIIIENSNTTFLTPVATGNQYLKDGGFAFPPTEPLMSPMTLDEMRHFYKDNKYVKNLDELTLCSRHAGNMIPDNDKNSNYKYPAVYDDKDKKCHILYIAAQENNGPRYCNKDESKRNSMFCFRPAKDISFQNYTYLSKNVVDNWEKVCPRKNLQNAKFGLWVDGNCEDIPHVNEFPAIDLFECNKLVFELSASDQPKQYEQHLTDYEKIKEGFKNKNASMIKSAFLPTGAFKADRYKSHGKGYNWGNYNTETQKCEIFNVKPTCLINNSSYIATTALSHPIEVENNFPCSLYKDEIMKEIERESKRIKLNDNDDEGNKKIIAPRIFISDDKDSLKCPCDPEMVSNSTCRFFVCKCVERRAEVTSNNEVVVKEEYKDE
The test can be described thus: dot blot against 7 AMA1 allelic proteins.

In test [6] the target is T5, P. falciparum FVO AMA1 recombinant allelic protein (Plasmodium falciparum, UniProt P50490 83-531).
T5 sequence: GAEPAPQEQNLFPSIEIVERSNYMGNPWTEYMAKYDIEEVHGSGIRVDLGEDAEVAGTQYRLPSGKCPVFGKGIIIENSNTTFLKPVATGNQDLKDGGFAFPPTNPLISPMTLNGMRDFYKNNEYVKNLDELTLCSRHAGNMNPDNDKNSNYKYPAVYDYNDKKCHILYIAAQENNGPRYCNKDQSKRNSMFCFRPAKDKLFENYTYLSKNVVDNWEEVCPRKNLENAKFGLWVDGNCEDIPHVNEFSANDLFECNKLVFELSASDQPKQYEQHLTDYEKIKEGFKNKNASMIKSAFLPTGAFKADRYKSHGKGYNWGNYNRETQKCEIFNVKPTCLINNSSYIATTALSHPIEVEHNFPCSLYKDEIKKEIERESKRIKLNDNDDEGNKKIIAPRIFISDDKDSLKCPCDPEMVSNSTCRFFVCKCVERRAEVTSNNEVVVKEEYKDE
Briefly: dot blot against 7 AMA1 allelic proteins.

In test [7] the target is T6, P. falciparum W2mef AMA1 recombinant allelic protein (Plasmodium falciparum, UniProt P50492 83-531).
T6 chain: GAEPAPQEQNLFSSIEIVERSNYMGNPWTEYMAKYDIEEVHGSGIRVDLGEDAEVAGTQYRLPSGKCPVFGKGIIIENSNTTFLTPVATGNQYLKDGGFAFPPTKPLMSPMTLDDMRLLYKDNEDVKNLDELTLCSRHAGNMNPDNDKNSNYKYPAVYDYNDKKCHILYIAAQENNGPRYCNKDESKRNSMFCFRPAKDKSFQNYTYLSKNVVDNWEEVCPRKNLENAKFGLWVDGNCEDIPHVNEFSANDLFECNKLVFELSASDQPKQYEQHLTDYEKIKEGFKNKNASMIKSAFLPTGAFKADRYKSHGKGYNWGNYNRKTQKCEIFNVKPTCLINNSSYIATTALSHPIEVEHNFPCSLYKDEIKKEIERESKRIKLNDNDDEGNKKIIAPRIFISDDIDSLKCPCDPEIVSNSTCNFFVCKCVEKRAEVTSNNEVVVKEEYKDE
Briefly: dot blot against 7 AMA1 allelic proteins.

B1: monoclonal antibody 1B10 (antibody, V domains shown)
VH: EVQLQESGPGLVQPSQSLSITCTVSGFSLNMYGVHWVRQSPGKGLEWLGVIWSGGTTDYNAAFISRLSINRDNSKSQVFFKMNSLQTDDTAIYYCVRNNGYYVDAMDYWGQGTSVAVSS
VL: DVVMTQTPLSLPVSLGDQASISCRSSQSLVHSNGNTYLHWYLQRPGQSPKLLIYKVSNRFSGVPDRFSGSGSGTDFTLKISRVEAEDLGVYFCSQSTLGPTFGGGTKLEMQR
As to B1, in test [1], the “Inhibition (GIA at 1 mg/ml against the 3D7 target strain)” value was 65%. For the same molecule, in test [2], the “IC30 concentration (30% inhibition against the 3D7 target parasites, GIA)” value was determined as 150 µg/mL.

B2: monoclonal antibody 4E11 (antibody, V domains shown)
VH: EVQLQESGPGLVRPSQSLSITCTVSGFSLPLYGVHWVRQSPGKGLEWLGVIWSGGSTDYNAAFVSRLSISKDNSKSQVFFEMNSLQADDTATYYCARNNGYYVDAMDYWGQGTSVTVSS
VL: DVVMTQTPLSLPVSLGDQASISCRSSQSLVHSNGNTYLHWYLQKPGQSPKLLIFKVSNRFSGVPDRFSGSGSGTDFTLQISRVEAEDLGFYFCSQSTHVPTFGGGTKLEIKR
Take B2: in test [1], the “Inhibition (GIA at 1 mg/ml against the 3D7 target strain)” value is 62%. For the same molecule, in test [2], the “IC30 concentration (30% inhibition against the 3D7 target parasites, GIA)” value was determined as 220 µg/mL.

B3: monoclonal antibody 4E8 (antibody, V domains shown)
VH: EVQLQESGPGLVQPSQSLSITCTVSDFSLIMYGVHWVRQSPGKGLEWLGVIWSGGSTDYNAAFISRLSISKDNSKSQVFFKMNSLQADDTAIYYCARNNGYYVDAMDYWGQGTSVTVSS
VL: DVVMTQTPLSLPVSLGDQASISCRSSQSLVHNNGNTYLHWYLQKPGQSPKLLIYKVSNRFFGVPDRFSGSGSGTDFTLKISRVEAEDLGVYFCSQSTHVPTFGGGTKLEIKR
Take B3: in test [1], the “Inhibition (GIA at 1 mg/ml against the 3D7 target strain)” value was 67%. Besides, the “IC30 concentration (30% inhibition against the 3D7 target parasites, GIA)” value in test [2] came to 150 µg/mL.

B4: monoclonal antibody 1E10 (antibody, V domains shown)
VH: EVQLQESGAELAKPGASVKLSCKASGYTFTNYLMHWIKQRPGQGLEWIGYINHGSGYTNYNQKFIDRATLTADKSSSTAYMQLRSLTYEDSAVYYCVHGYFDVWGTGTTVTVSS
VL: QIVLTQSPTIMSASPGEKVTMTCSASSSVTYMHWYQQKPGTSPKRWIYDTSKLASGVPARFSGSGSGTSYSLTISSMEAEDAATYYCHQRSSYPTFGGGTKLEIKR
notes: Mouse monoclonal raised against QV, purified from ascites on Protein G; also called mAb 1E10; Monoclonal 1E10
As to B4, in test [1], the “Inhibition (GIA at 1 mg/ml against the 3D7 target strain)” value was 20%. For the same molecule, the binding result in test [3], in test [4], in test [5], in test [6] and in test [7] was “binds” in each case. Also, in test [2], the “IC30 concentration (30% inhibition against the 3D7 target parasites, GIA)” value was determined as 1900 µg/mL.
